Legend:
[1] = target: T1, cynomolgus monkey CD3 expressed on cyno primary T cells (cynomolgus monkey, UniProt Q95LI5 22-198; Q95LI8 22-171; Q95LI7 23-181); assay: flow cytometry, cyno primary T cells
T1 construct: whole, on cells; CD3 complex on purified cynomolgus monkey CD3 pan T cells; also called cyno CD3
Outline: (§1)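 Binding readout: MFI divided by isotype-control MFI (fold over isotype), positive at ≥10. Cells were stained with 25 nM antibody, 30 min, 4° C, in PBS/2% FBS before flow cytometry.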

[2] = target: T2, human CD3 expressed on cells (Jurkat cells; human primary T cells) (human, UniProt P07766 23-207; P04234 22-171; P09693 23-182); assay: flow cytometry, 25 nM, human primary T cells
T2 construct: whole, on cells
T2 sequence (P07766 23-207, chain 1 of 3): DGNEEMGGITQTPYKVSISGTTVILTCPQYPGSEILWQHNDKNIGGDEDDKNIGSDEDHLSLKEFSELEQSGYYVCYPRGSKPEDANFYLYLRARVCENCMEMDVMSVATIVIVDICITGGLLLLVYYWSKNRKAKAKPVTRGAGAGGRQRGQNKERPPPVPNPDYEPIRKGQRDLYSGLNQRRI
T2 sequence (P04234 22-171, chain 2 of 3): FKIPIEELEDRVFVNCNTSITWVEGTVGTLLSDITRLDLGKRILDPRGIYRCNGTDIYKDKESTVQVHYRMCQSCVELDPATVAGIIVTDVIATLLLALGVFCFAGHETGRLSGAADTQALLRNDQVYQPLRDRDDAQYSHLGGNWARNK
T2 sequence (P09693 23-182, chain 3 of 3): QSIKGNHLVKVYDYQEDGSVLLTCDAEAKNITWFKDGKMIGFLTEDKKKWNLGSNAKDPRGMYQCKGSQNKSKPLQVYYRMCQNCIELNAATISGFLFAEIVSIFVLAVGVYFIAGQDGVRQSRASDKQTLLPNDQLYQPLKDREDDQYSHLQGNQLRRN
Protocol: (§2) Purified antibodies were confirmed to bind CD3 expressed on cells using the CytoFLEX S or LX flow cytometers (Beckman Coulter). Antibodies were diluted to 25 nM in FACS buffer (PBS+2% FBS) and were incubated with CD3-expressing cells for 30 minutes at 4° C. […] The median fluorescence intensity of the binding signal for each antibody was normalized to the isotype control to obtain a fold over isotype value. An antibody with a fold over isotype (FOI) of ≥10 was considered to be positive for binding.

[3] = target: T2, human CD3 expressed on cells (Jurkat …); assay: flow cytometry, 25 nM, Jurkat cells
Protocol: as §2

[4] = target: T3, cynomolgus monkey CD3 expressed on primary T cells (cynomolgus monkey, UniProt Q95LI5 22-198; Q95LI8 22-171; Q95LI7 23-181); assay: flow cytometry, 25 nM, cyno primary T cells
T3 construct: whole, on cells; CD3 complex on purified cynomolgus monkey T cells; also called cyno CD3
T3 sequence (Q95LI5 22-198, chain 1 of 3): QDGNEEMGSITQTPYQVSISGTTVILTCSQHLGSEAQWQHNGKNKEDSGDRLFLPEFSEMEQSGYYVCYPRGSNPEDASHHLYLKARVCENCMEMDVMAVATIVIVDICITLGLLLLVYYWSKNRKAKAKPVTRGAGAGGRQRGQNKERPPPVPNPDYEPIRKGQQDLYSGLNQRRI
T3 sequence (Q95LI8 22-171, chain 2 of 3): as the sequence (P04234 22-171, chain 2 of 3) above, with I5V, N15K, I20V, S32T, D33N, I34N, T64A, S74N, V83L, H141R counted along it
T3 sequence (Q95LI7 23-181, chain 3 of 3): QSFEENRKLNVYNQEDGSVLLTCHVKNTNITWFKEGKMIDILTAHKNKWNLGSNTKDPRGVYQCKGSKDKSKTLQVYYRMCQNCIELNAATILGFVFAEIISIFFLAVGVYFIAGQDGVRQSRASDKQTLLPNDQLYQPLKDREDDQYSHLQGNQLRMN
Outline: as §1

[5] = target: T4, human CD3 expressed on cells (human, UniProt P07766 23-207; P04234 22-171; P09693 23-182); assay: flow cytometry, 25 nM
T4 construct: whole, on cells; CD3 complex on Jurkat cells and on human primary T cells
T4 sequence (P07766 23-207, chain 1 of 3): as the sequence (P07766 23-207, chain 1 of 3) above
T4 sequence (P04234 22-171, chain 2 of 3): as the sequence (P04234 22-171, chain 2 of 3) above
T4 sequence (P09693 23-182, chain 3 of 3): as the sequence (P09693 23-182, chain 3 of 3) above
Outline: as §1

T1 sequence (Q95LI5 22-198, chain 1 of 3): as the sequence (Q95LI5 22-198, chain 1 of 3) above
T1 sequence (Q95LI8 22-171, chain 2 of 3): as the sequence (P04234 22-171, chain 2 of 3) above, with I5V, N15K, I20V, S32T, D33N, I34N, T64A, S74N, V83L, H141R counted along it
T1 sequence (Q95LI7 23-181, chain 3 of 3): as the sequence (Q95LI7 23-181, chain 3 of 3) above

| Binding (FOI) [2] [FOI] | Binding (FOI) [3] [FOI] | binding result [4] | Human primary T Cell Binding (FOI) [5] [FOI] | Jurkat Cell Binding (FOI) [5] [FOI] | Binder | binding result [1] |
| --- | --- | --- | --- | --- | --- | --- |
| 99.8 | 135 |  |  |  | mAb 290 (antibody, V domains shown, VH/VL only) VH: EVQLVESGGGVVRPGGSLRLSCAASGFTFDDYGMSWVRQAPGKGLEWVSGISWNGGSTGYADSVKGRFTISRDNAKNSLYLQMNSLRAEDTALYHCARDGVPVVKRRYYYYYMDVWGKGTTVTVSS VL: EIVLTQSPDFQSVTPKEKITITCRASQSIGSSLHWYQQKPDQSPKLLIKYASQSFSGVPSRFSGSGSGTDFTLTINSLEAEDAATYYCHQSASLPQTFGQGTKVEIK | no binding (tested: FOI <10 (FOI >=10 = positive); 25 nM) |
| 185 | 232 |  |  |  | mAb 286 (antibody, V domains shown, VH/VL only) VH: EVKLVESGGGVVRPGGSLRLSCAASGFTFDDYGMSWVRQAPGKGLEWVSGISWNGGSTGYADSVKGRFTISRDNAKNSLYLQMNSLRAEDTALYHCARDGVPVVKRRYYYYYMDVWGKGTTVTVSS VL: EIVLTQSPDFQSVTPKEKVTITCRASQSIGSSLHWYQQKPDQSPKLLIKYASQSFSGVPSRFSGRGSGTDFTLTINSLEAEDAATYYCHQSGSLPQTFGQGTKVEIK | no binding (tested: FOI <10 (FOI >=10 = positive); 25 nM) |
|  |  | no binding (tested: FOI >=10 = positive) | 217 | 191 | mAb 145 (antibody, V domains shown) VH: QVQLVQSGAEVKKPGASVKVSCKASGYTFTNYYIHWVRQAPGQGLDWMGIINPSGGITGYAQKFQGRVTMTRDTSTTTVYMELSSLRSDDTAVYYCARGVRGNYYYYYMDVWGKGTTVTVSS VL: EIVLTQSPDFQSVTPKEKVTITCRASQSIGSKLHWYQQKPDQSPKLLIKFASQSFSGVPSRFSGSGSGTDFNLTINSLEPEDAATFYCHQSSGLPYTFGQGTKLEIK |  |
| 212 | 170 |  |  |  | mAb 191 (antibody, V domains shown, VH/VL only) VH: QVQLVESGGGVVQPGRSLRLSCAASGFTFSGYGMHWVRQAPGKGLEWVAIIYYNGKKEYYADSVKGRFTISRDNSKNTLYLQMNSLRAEDTAVYYCTRGEGYNWFDPWGQGTLVTVSS VL: EIVMTQSPATLSVSPGERATLSCRASQSVSSNLAWYQQKPGQAPRLLIYGASTRATGIPARFSGSGSGTDFTLTISSLQSEHFAVYYCQQYTNWPLTFGGGTKVEIK | no binding (tested: FOI <10 (FOI >=10 = positive); 25 nM) |
| 184 | 165 |  |  |  | mAb 189 (antibody, V domains shown, VH/VL only) VH: QVQLVESGGGVVQPGRSLRLSCAASGFTFSGYGMHWVRQAPGKGLEWVAIIYYDGKNKYYADSVKGRFTISRDNSKSTLYLQMNSLGADDTAVYYCTRGKGYNWFDPWGQGTLVTVSS VL: not shown | no binding (tested: FOI <10 (FOI >=10 = positive); 25 nM) |
| 118 | 96.6 |  |  |  | mAb 175 (antibody, V domains shown, VH/VL only) VH: EVELVESGGGLVQPGGSLRLSCAASGFTFSSNWMSWVRQAPGKGLEWVANIKQDGSEKYYVDSVKGRFTISRDNAKNSLYLKMNSLRAEDTAVYYCARDCSSNWYWYFDLWGRGTLVTVSS VL: not shown | no binding (tested: FOI <10 (FOI >=10 = positive); 25 nM) |

Continued, binder first:

| Binder | Binding (FOI) [2] [FOI] | Binding (FOI) [3] [FOI] | binding result [4] | Human primary T Cell Binding (FOI) [5] [FOI] | Jurkat Cell Binding (FOI) [5] [FOI] | binding result [1] |
| --- | --- | --- | --- | --- | --- | --- |
| mAb 170 (antibody, V domains shown, VH/VL only) VH: EVQLVESGGGLVRPGRSLRLSCAASGFTFDDYTMHWVRQAPGKGLEWVSGISWNSGSIGYADSVKGRFTISRDNAKNSLYLQMNSLRAEDTALYYCSKDSSGYGYYLNYSLDVWGKGTTVTVSS VL: not shown | 120 | 117 |  |  |  | no binding (tested: FOI <10 (FOI >=10 = positive); 25 nM) |
| mAb 172 (antibody, V domains shown, VH/VL only) VH: EVQLVESGGGLVQPGRSLRLSCTTSGFTFDDYTMHWVRQVPGKGLEWVSDISWNSGSVGYADSVKGRFTISRDNAKNSLYLQMNSLRAEDTALYYCVKDSSGYGHYFHYYMDVWGKGTTVTVSS VL: DIQMTQSPSSLSASVGDRVTITCRASQSISNYLNWYQVKPGKAPKVLIYAASSLQSGVPSRFSGSGSGTDFTLTISSLQPEDFVSYYCHQSYNAPITFGQGTRLESK | 167 | 111 |  |  |  |  |
| mAb 173 (antibody, V domains shown, VH/VL only) VH: EVQLVESGGGLVQPGRSLRLSCAASGFTFDDYTMHWVRQVPGKGLEWVSDISWNSGSVGYADSVKGRFTISRDNAKNSLYLQMNSLRAEDTALYYCVKDSSGYGHYFHYYMDVWGKGTTVTVSS VL: DIQMTQSPSSLSASVGDRVTITCRASQSISNYLNWYQVKPGKAPKVLIYAASSLQSGVPSRFSGSGSGTDFTLTISSLQPEDFVSYYCHQSYNTPITFGQGTRLEIK | 169 | 109 |  |  |  |  |
| mAb 285 (antibody, V domains shown, VH/VL only) VH: EVQLLESGGGLGQPGGSLRLSCAASGFTFSNYAMSWVRQAPGKGLEWVSVISGSGGDKNYADSVKGRFTISRDNSKNTLYLQMNSLRAEDTAVYYCAKKYSYYYYYMDVWGKGTTVTVSS VL: SYELTQPLSVSVALGQTARITCGGNNIGSKDVHWYQQKPGQAPVLVIYRDSNRPSGIPERFSGSNSGNTATLTISSAQAGDEADYYCQVWDSRTAVFGGGTQLTAL | 229 | 232 |  |  |  | no binding (tested: FOI <10 (FOI >=10 = positive); 25 nM) |
| mAb 273 (antibody, V domains shown, VH/VL only) VH: EVQLVESGGGLVQPGESLKLSCTASGFTFSVSAIHWVRQASGKGLEWVGRIRSKANSYATAYVASVKGRFTLSRDDSKNTAYLQMNSLKTEDTAVYYCSSYYFVSGTYYNHWGQGTLVTVSS VL: DIQMTQSPSSLSASVGDRVTITCRASQGIRYDLGWYQQKPGRAPKRLIHSVSSLQSGVPSRFSGSGSGTEFTLTISSLQPEDFATYYCLQHNVNPCTFGQGTKLEIK | 24.2 | 53.1 |  |  |  |  |
| mAb 287 (antibody, V domains shown, VH/VL only) VH: EVQLVESGGGVVRPGGSLRLSCAASGFTFDDYGMSWVRQAPGKGLEWVSGISWNGGSTGYADSVKGRFTISRDNAKNSLYLQMNSLRAEDTALYHCARDGVPVVKRRYYYYYMDVWGKGTTVTVSS VL: EIVLTQSPDFQSVTPKEKVTITCRASQSIGSSLHWYQQKPDQSPKLLIKYASQSFSGVPSRFSGSGSGTDFTLTINSLEAEDAATYYCHQSASLPQTFGQGTKVEIK | 107 | 156 |  |  |  | no binding (tested: FOI <10 (FOI >=10 = positive); 25 nM) |
| mAb 188 (antibody, V domains shown, VH/VL only) VH: QVQLVESGGGVVQPGRSLRLSCAASGFTFSGYGMHWVRQAPGKGLEWVAIIYYNGKKEYYADSVKGRFTISRDNSKNTLYLQMNSLRAEDTAVYYCTRGEGYNWFDPWGQGTLVTVSS VL: not shown | 216 | 171 |  |  |  | no binding (tested: FOI <10 (FOI >=10 = positive); 25 nM) |
| mAb 174 (antibody, V domains shown, VH/VL only) VH: EVQLVESGGGLVQPGGSLRLSCAASGFTFSSNWMSWVRQAPGKGLEWVANIKQDGSEKYSVDSVKGRFTISRDNAKNSLYLQMNSLRAEDTAVYYCARDRSRNYYWYFDLWGRGTLVTVSS VL: not shown | 231 | 130 |  |  |  | no binding (tested: FOI <10 (FOI >=10 = positive); 25 nM) |
